Source: patent publication US11945881B2, “Neoantigens expressed in ovarian cancer and their uses” (Janssen Biotech, Inc., priority 2020, dated 2024)

How the values were obtained:
CD8+ T cells = assay: exogenous autologous normal donor restimulation assay, TNFα/IFNγ double positive CD8+ T cells by flow cytometry; format: cell-based, human; settings: for Fold change (CD8+) vs. DMSO: maximum CD8+ T-cell response (TNFα and IFNγ); for Fold change (CD8+) vs. DMSO / Frequency (TNFα + IFNγ + CD8 T cells): donor independent, peptide pool 10 μg/mL, healthy donors; for Frequency (TNFα + IFNγ + CD8 T cells): maximum CD8+ T-cell response; for Immunogenic (yes/no): positive if CD8+ and/or CD4+ double positive TNFα/IFNγ frequency >=3-fold over DMSO and at least 0.01%
CD4+ T cells = assay: exogenous autologous normal donor restimulation assay, TNFα/IFNγ double positive CD4+ T cells by flow cytometry; format: cell-based, human; settings: donor independent, peptide pool 10 μg/mL, healthy donors; for Fold change (CD4+) vs. DMSO: maximum CD4+ T-cell response (TNFα and IFNγ); for Frequency (TNFα + IFNγ + CD4 T cells): maximum CD4+ T-cell response

Molecule | Fold change (CD8+) vs. DMSO (CD8+ T cells) [fold] | Frequency (TNFα + IFNγ + CD8 T cells) (CD8+ T cells) [%] | Immunogenic (yes/no) (CD8+ T cells) | Fold change (CD4+) vs. DMSO (CD4+ T cells) [fold] | Frequency (TNFα + IFNγ + CD4 T cells) (CD4+ T cells) [%]
YCKNDFFRSLPCHLL [AS16, neoantigen, alternative splicing of LHX1] | 2.88 | 0.062 | Yes | 5.43 | 0.011
YGNDQWLQMRKWRHRE [FUS13, neoantigen, gene fusion MFGE8->HAPLN3] | 5.12 | 0.11 | yes | 3.35 | 0.12
LKQDVRSGGPGARQLRGGLLRQAAPPGRRTRPFPHRARLHTALPTARLPGGPAAASRPAFRAAPRESGASVPGPSASPG (neoantigen, alternative splicing of IL17RC) LKQDVRSGGPGARQLRGGLLRQAAPPGRRTRPFPHRARLHTALPTARLPGGPAAASRPAFRAAPRESGASVPGPSASPG | 25.75 | 0.36 | Yes | 10.73 | 0.12
RDLQCPKKTQTPQAQSRLESERKKNTLTWLVPTPWDWRQWSTAPSRGLVWPPPPVDYELWKSS (neoantigen, alternative splicing of LRRC75B) RDLQCPKKTQTPQAQSRLESERKKNTLTWLVPTPWDWRQWSTAPSRGLVWPPPPVDYELWKSS | 143.98 | 1.28 | Yes | 10.84 | 0.047
HFVRSQDKGMVWTPEPSALPRTPRRHPGLSLCSQWGGLRVGPPAARPGWSLAHVLRVTLLQFHPNPGKETQKKQRCPKEDPSRIWRA (neoantigen, alternative splicing of RUFY4) HFVRSQDKGMVWTPEPSALPRTPRRHPGLSLCSQWGGLRVGPPAARPGWSLAHVLRVTLLQFHPNPGKETQKKQRCPKEDPSRIWRA | 69.96 | 1.87 | Yes | 279.88 | 0.28
ARLRELRQCGGGRGKRGQGWGVRDETITGRPAVLGSPFLSPALAPPSRLMGDLWDGQSAGWSPGSPASPFCGGW (neoantigen, alternative splicing of HSF4) ARLRELRQCGGGRGKRGQGWGVRDETITGRPAVLGSPFLSPALAPPSRLMGDLWDGQSAGWSPGSPASPFCGGW | 66.2 | 0.62 | Yes | 6.63 | 0.043
HQYIVVQDIHTETQHSALGAQPADSIPPFLQHTLQHLACPSLELPGNEQARREKRRRDDAFSDSL (neoantigen, alternative splicing of SRGAP3) HQYIVVQDIHTETQHSALGAQPADSIPPFLQHTLQHLACPSLELPGNEQARREKRRRDDAFSDSL | 14.89 | 0.16 | Yes | 12.03 | 0.078
